{"source": "paper doi:10.1101/2023.04.22.537027", "about": "(bioRxiv, 2023)", "molecular_target": "the molecule itself", "experiment": "crystal structure"}
{"protein": "Cdc10_(Δ1-10) (domain or fragment) SYVGFDTITNQIEHRLLKKGFQFNIMVVGQSGLGKSTLINTLFASHLIDSATGDDISALPVTKTTEMKISTHTLVEDRVRLNINVIDTPGFGDFIDNSKAWEPIVKYIKEQHSQYLRKELTAQRERFITDTRVHAILYFLQPNGKELSRLDVEALKRLTEIANVIPVIGKSDTLTLDERTEFRELIQNEFEKYNFKIYPYDSEELTDEELELNRSVRSIIPFAVVGSENEIEINGETFRGRKTRWSAINVEDINQCDFVYLREFLIRTHLQDLIETTSYIHYEGFRARQLIALKENANSRSSAHMSSNAIQR", "values": [{"measurement": "binding result", "value": "binds"}]}
